These are literature values, as cited in US10966977B2, “Combination of anti-CD20 antibody, P13 kinase-delta selective inhibitor, and BTK inhibitor to treat b-cell proliferative disorders” (TG Therapeutics, Inc., priority 2016, dated 2021).

The subject of data set [1] is relapsed and refractory hematologic malignancies. The settings on record: single agent.
The target of a further data set is T1, CD20 (Homo sapiens, UniProt P11836).
T1 sequence (P11836 1-297): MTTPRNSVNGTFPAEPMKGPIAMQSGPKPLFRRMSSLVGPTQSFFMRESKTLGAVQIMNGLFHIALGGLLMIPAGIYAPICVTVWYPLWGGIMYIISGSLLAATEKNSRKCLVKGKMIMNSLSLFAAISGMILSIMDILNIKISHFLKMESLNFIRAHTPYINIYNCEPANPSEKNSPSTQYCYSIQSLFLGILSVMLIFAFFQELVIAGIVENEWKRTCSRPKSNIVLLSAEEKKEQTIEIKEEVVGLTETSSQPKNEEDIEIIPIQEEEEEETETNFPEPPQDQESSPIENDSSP

The target of a further data set is T2, CD20 antigen (Homo sapiens, UniProt P11836).
T2 sequence (P11836 1-297): T1 sequence (P11836 1-297)

For data set [2] the following is noted: single agent.

Entries after “also recorded” stand apart in the source; their conditions may differ. Structures can show the parent of a compound that is named as a salt.

On to `CC(C)Oc1ccc(-c2nn([C@@H](C)c3oc4ccc(F)cc4c(=O)c3-c3cccc(F)c3)c3ncnc(N)c23)cc1F` [TGR-1202, (S)-2-(1-(4-amino-3-(3-fluoro-4-isopropoxyphenyl)-1H-pyrazolo[3,4-d]pyrimidin-1-yl)ethyl)-6-fluoro-3-(3-fluorophenyl)-4H-chromen-4-one p-toluenesulfonic acid (PTSA) salt], for which the hepatic toxicity entry in data set [1] is “no reported hepatic toxicity”. Besides, the tolerability result in data set [1] (patients with relapsed or refractory hematologic malignancies) was “well-tolerated”.

Turning to “ofatumumab: anti-CD20 IgG1κ human monoclonal antibody”, the “dissociation rate from CD20 compared to rituximab” value with CD20 was “slower rate”.

B1: Ublituximab: chimeric monoclonal antibody targeting a unique epitope on the CD20 antigen, glycoengineered for enhanced affinity for Fcγ RIIIa receptors (antibody, V domains shown)
VH: QAYLQQSGAELVRPGASVKMSCKASGYTFTSYNMHWVKQTPRQGLEWIGGIYPGNGDTSYNQKFKGKATLTVGKSSSTAYMQLSSLTSEDSAVYFCARYDYNYAMDYWGQGTSVTVSS
VL: QIVLSQSPAILSASPGEKVTMTCRASSSVSYMHWYQQKPGSSPKPWIYATSNLASGVPARFSGSGSGTSYSFTISRVEAEDAATYYCQQWTFNPPTFGGGTRLEIK
modifications: Ublituximab Variable heavy chain; Ublituximab Variable light chain
With B1, the “ADCC activity compared with rituximab and ofatumab” value with CD20 antigen is “greater antibody-dependent cellular cytotoxicity”. In addition, the “responses in rituximab refractory patients” value in data set [2] is recorded as “Responses with single agent ublituximab were observed in rituximab refractory patients; also recorded: Responses with single agent ublituximab have been observed in rituximab refractory patients”.
